From patent US20260250421A1 (BIOCYTOGEN PHARMACEUTICALS BEIJING, published 2026) come the findings set out here.

The target of assay [1] is T1, human PTK7 on human cancer cell lines (human, UniProt Q13308 31-1070).
T1 construct: Endogenous PTK7 of human tumour cell lines; also called PTK7 on A-431, NCI-H520, NCI-N87, SK-OV-3, BT-20, HCC1954, NCI-H226, NCI-H358, HCT116, PC-3, NCI-H292, NCI-H1975 cells
T1 sequence: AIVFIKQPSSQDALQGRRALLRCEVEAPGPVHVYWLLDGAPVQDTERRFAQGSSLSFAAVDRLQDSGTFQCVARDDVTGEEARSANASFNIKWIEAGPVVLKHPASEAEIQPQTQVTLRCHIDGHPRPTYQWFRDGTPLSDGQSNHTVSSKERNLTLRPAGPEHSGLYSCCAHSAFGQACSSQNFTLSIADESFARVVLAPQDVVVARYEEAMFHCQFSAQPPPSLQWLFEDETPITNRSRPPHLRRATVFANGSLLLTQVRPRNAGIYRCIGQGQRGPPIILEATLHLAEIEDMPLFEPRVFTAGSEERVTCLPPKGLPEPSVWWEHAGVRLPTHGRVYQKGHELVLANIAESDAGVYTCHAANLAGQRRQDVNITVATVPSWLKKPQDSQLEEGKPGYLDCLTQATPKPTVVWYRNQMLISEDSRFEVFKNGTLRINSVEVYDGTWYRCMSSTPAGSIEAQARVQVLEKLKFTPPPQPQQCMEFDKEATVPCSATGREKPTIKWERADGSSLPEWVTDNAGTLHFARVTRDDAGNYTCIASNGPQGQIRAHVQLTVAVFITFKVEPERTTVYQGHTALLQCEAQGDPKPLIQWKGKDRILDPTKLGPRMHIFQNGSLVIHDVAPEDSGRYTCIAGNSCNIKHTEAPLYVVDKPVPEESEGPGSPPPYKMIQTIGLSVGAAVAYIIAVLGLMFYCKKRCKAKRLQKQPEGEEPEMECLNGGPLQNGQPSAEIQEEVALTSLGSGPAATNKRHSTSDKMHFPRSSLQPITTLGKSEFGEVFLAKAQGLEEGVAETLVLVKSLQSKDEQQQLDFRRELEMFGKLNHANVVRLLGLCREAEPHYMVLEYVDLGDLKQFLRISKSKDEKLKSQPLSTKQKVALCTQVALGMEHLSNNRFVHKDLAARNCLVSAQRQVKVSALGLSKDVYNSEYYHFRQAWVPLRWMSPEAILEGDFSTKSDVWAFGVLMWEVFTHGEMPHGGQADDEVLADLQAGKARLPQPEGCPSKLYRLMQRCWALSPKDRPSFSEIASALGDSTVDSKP
As to the kind of experiment: flow cytometry, BT-20 cells, Ab 5 ug/mL. On the procedure:
(§1) The binding activity of anti-PTK7 antibodies to cancer cell lines was verified by flow cytometry. […] Purified anti-PTK7 antibody with a concentration of 5 μg/mL was added to each well and was incubated at 4° C. for 30 minutes. […] The cells were collected, and the mean fluorescence intensity (MFI) was determined. Human IgG1 was used as ISO control.

Assay [2] addresses T2, His-tagged human PTK7 protein (human, UniProt Q13308 31-704).
T2 construct: Bought protein; also called hPTK7-His; not shown: His tag
T2 sequence: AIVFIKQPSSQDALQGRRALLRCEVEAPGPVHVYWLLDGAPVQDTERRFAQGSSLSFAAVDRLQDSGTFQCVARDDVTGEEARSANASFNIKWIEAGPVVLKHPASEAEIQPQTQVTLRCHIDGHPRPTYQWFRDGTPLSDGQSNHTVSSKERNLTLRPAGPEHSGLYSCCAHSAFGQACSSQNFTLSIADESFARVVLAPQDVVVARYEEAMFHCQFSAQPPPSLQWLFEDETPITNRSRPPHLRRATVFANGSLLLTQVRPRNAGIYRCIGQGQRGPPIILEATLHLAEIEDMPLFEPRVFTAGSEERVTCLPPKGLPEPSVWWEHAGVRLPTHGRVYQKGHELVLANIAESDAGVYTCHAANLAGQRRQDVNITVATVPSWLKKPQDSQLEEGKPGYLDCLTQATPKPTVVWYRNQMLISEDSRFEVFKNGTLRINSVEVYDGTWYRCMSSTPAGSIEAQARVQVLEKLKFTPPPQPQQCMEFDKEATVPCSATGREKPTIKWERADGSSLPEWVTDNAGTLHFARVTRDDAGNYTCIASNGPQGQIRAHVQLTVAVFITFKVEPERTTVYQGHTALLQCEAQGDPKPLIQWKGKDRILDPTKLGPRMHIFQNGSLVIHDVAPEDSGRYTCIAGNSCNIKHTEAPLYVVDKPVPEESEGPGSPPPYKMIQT
As to the kind of experiment: BLI Octet binning on hPTK7-His; competitor 2D11. As to the method: Relative positions of target protein epitope between a pair of purified anti-PTK7 antibodies were analyzed by Biolayer Interferometry (BLI) using ForteBio Octet system at 30° C. A total of […] purified antibodies were used: 1A7, 1A11, 1F2, 2A5, 2D11, 2F5, 3C4 and 3E6.
1×HBS-EP+ buffer (10 mM 4-(2-hydroxyethyl)-1-piperazineethanesulfonic acid (HEPES), 150 mM NaCl, 3 mM ethylenediaminetetraacetic acid (EDTA) and 0.05% P20, pH7.4) diluted from HBS-EP+ buffer (10×) was used as the running buffer throughout the experiment. His-tagged human PTK7 protein was captured at a flow rate of 10 μL/min, and 200 nM of antibody (Analyte 1) was injected at a flow rate of 30 μL/min to bind the ligand. Another antibody (Analyte 2) was injected under the same conditions to determine whether the binding of different antibodies interfered with each other. The binding time was 300 s for each antibody.
The binding value of each antibody was obtained using Data Analysis HT 12.0. To quantify the interference of one antibody binding to another, a binding ratio was calculated to compare each pair of antibodies. The binding ratio is defined as the binding value of the second antibody (Analyte 2), divided by the binding value of the first antibody (Analyte 1). […] In general, antibody pairs that interfere with each other have the same or overlapping epitopes.
(In general: Biolayer interferometry detects binding as a change in optical thickness at a sensor tip.)

Assay [3] addresses T1, human PTK7 on human cancer cell lines. As to the kind of experiment: flow cytometry, NCI-H520 cells, Ab 5 ug/mL. As to the method: as §1
On the technique in general: A flow cytometer gives signals particle by particle.

Assay [4] has the same target. As to the kind of experiment: flow cytometry, NCI-H226 cells, Ab 5 ug/mL. As to the method:
as §1

Assay [5] has the same target. As to the kind of experiment: flow cytometry, SK-OV-3 cells, Ab 5 ug/mL. On the procedure:
as §1

The target is the same in assay [6]. As to the kind of experiment: flow cytometry, HCC1954 cells, Ab 5 ug/mL. As to the method:
as §1

For assay [7] the target is unchanged. As to the kind of experiment: flow cytometry, HCT116 cells, Ab 5 ug/mL. On the procedure: as §1

Numbering of substitutions follows the chain as printed.

B1: 3C4 (antibody, V domains shown)
VH: QVQLEQSRAEVKKPGESLRISCKGSGYSFTSYWISWVRQMPGKGLEWMGRIDPSDSYTNYNPSFQGHVTISADKSISTAYLQWSSLKASDTAMYYCARRDGSYFDFDYWGQGTLVTVSS
VL: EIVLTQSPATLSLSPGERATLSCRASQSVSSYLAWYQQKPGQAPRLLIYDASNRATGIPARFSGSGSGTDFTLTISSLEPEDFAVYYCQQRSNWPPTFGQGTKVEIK
notes: also called anti-PTK7 antibody 3C4
For B1, the MFI worked out at 148000 in assay [1]; 282000 in assay [3]; 167000 in assay [4]; 304000 in assay [5]; 187000 in assay [6]; 230000 in assay [7]. Further, the binding ratio in assay [2] is 0.91.

B2: 3E6 (antibody, V domains shown)
VH: B1 VH with E5V, Q6E, R8G, K23R, N59K, N61S, S102D
VL: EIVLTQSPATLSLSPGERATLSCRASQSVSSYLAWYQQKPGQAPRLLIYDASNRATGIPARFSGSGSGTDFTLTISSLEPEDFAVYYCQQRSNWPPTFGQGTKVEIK
notes: also called anti-PTK7 antibody 3E6
As to B2, the MFI in assay [1] came out at 152000; in assay [3], 310000; in assay [4], 193000; in assay [5] it was 373000; in assay [6], 207000; in assay [7] it was 339000. Also, the binding ratio in assay [2] is 0.76.

B3: 1A7 (antibody, human IgG1, V domains shown)
VH: QVQLVESGGGVVQPGRSLRLSCAASGFTFSNYGMHWVRQAPGKGLEWVAVIYYDGSNKFYADSVKGRFTISRDNSKNTLYLQMSSLRAEDTAVYYCARDVAPPGSRAEYFHHWGQGTLVTVSS
VL: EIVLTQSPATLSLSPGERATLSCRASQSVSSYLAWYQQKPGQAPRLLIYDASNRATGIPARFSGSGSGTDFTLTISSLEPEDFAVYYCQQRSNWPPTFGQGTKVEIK
notes: also called anti-PTK7 antibody 1A7
Regarding B3, the MFI in assay [1] is 86200; in assay [3], 190000; in assay [4], 80200; in assay [5], 197000; in assay [6], 118000; in assay [7], 115000. Besides, in assay [2], the binding ratio turned out to be 0.1.

B4: 2D11 (antibody, V domains shown)
VH: B3 VH with N31S, Y52F, F59Y, S84N, A92S, P102A, H111Q, H112N
VL: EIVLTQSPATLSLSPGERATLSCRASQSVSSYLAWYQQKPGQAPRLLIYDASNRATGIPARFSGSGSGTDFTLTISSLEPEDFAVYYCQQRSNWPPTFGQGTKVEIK
notes: also called anti-PTK7 antibody 2D11
Take B4: the MFI was determined as 172000 in assay [1]; 312000 in assay [3]; 180000 in assay [4]; 371000 in assay [5]; 211000 in assay [6]; 287000 in assay [7]. The binding ratio in assay [2] was found to be 0.15.

B5: 2F5 (antibody, V domains shown)
VH: B3 VH with A23V, V50I, F59Y, S84N, P102A, P103A, F110L
VL: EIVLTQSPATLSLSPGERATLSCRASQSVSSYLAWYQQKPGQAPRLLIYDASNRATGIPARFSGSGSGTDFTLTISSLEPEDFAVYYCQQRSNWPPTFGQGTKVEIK
notes: also called anti-PTK7 antibody 2F5
With B5, the MFI in assay [1] was 83800; in assay [3] it was 199000; in assay [4], 80900; in assay [5] it was 178000; in assay [6], 121000; in assay [7], 133000. Moreover, the binding ratio in assay [2] was 0.07.

B6: 2A5 (antibody, V domains shown)
VH: B3 VH with E6Q, Y52W, S56R, F59Y, S84N, P103A, H111Q, H112N
VL: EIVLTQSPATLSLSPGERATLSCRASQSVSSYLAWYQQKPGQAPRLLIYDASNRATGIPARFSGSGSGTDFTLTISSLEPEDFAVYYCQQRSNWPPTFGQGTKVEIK
notes: also called anti-PTK7 antibody 2A5
Take B6: the MFI in assay [1] amounted to 137000; in assay [3], 283000; in assay [4] it was 141000; in assay [5] it was 283000; in assay [6] it was 179000; in assay [7] it was 234000. Moreover, the binding ratio in assay [2] is -0.07.

B7: 1F2 (antibody, V domains shown)
VH: QVQLVQSGGGLVQPGGSLRLSCAASGFTFSRYEMNWVRQAPGKGLEWVSYINSIGSAINYADSVKGRFTISRDNAKNSLYLQMRSLRAEDTAVYYCVREDNWNPGYWGQGTLVTVSS
VL: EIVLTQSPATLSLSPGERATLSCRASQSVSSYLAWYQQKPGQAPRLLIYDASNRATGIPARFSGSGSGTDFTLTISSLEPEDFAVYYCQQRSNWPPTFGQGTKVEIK
notes: also called anti-PTK7 antibody 1F2
For the molecule B7, the MFI came out at 50900 in assay [1]; 216000 in assay [3]; 94900 in assay [4]; 210000 in assay [5]; 99100 in assay [6]; 149000 in assay [7]. Also, the binding ratio in assay [2] worked out at 0.62.

B8: 1A11 (antibody, V domains shown)
VH: QVQLVQSGPGLVKPSETLSLTCTVSGGSINSYYWNWIRQPPGKGLEWIGYIYYSGSTNYNPSLKSRVTISVDTSKNQFSLKLSSVTAADTAVYYCARDPHDYIRGHFDLWGRGTLFTVSS
VL: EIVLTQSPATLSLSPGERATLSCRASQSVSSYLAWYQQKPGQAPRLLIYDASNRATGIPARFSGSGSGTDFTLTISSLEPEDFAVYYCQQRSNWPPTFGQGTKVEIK
notes: also called anti-PTK7 antibody 1A11
B8: the MFI amounted to 136000 in assay [1]; 296000 in assay [3]; 152000 in assay [4]; 319000 in assay [5]; 172000 in assay [6]; 260000 in assay [7]. In addition, the binding ratio in assay [2] is 0.71.
